# Results published in patent EP1007666B1 (GENENTECH, INC., dated 2005).
# T1: recombinant soluble rat GDNFRα (rat, UniProt Q62997 25-430, limits assumed)
# T1 construct: also called rGDNFRα; GFR-alpha-1
# T1 sequence (looked up): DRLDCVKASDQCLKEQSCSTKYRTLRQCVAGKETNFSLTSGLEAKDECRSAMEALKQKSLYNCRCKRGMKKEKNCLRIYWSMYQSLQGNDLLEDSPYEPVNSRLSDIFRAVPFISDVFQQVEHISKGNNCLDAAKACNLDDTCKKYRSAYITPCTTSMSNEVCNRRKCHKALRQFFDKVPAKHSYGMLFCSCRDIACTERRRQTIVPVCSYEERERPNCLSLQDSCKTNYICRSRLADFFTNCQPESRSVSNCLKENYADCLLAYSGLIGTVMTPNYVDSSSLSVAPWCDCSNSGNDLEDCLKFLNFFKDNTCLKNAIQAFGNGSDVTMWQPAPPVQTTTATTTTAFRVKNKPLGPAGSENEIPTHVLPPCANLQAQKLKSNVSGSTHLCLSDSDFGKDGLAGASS
# B1: human Neurturin (ligand, UniProt Q99748 96-197, looked up)
# chain: ARLGARPCGLRELEVRVSELGLGYASDETVLFRYCAGACEAAARVYDLGLRRLRQRRRLRRERVRAQPCCRPTAYEDEVSFLDAHSRYHTVHELSARECACV
# modifications: 125I-labelled in the direct binding assays; unlabelled as cold competitor
# notes: also called human NTN; hNTN
# B2: mouse Neurturin (ligand, UniProt P97463 96-195, looked up)
# chain: PGARPCGLRELEVRVSELGLGYTSDETVLFRYCAGACEAAIRIYDLGLRRLRQRRRVRRERARAHPCCRPTAYEDEVSFLDVHSRYHTLQELSARECACV
# modifications: 125I-labelled in the direct binding assays; unlabelled as cold competitor
# notes: also called mouse NTN; mNTN
# B3: rat GDNF (ligand, UniProt Q07731 78-211, looked up)
# chain: SPDKQAAALPRRERNRQAAAASPENSRGKGRRGQRGKNRGCVLTAIHLNVTDLGLGYETKEELIFRYCSGSCEAAETMYDKILKNLSRSRRLTSDKVGQACCRPVAFDDDLSFLDDSLVYHILRKHSAKRCGCI
# modifications: 125I: iodinated either on tyrosine by the Bolton Hunter method or on lysine using lactoperoxidase
# notes: also called rGDNF
# B4: GDNF, species not stated at these places (ligand)
# chain: B3 chain
# modifications: Biotinylated in the paragraph 22 experiment; natural form is a disulfide-linked homodimer
# notes: also called biotinylated GDNF
# Assays:
# [1] = target: T2, rat NTNRα-IgG (soluble rNTNRα, product of pRK-rNTNRα-IgG) (rat); test: equilibrium binding of 125I-NTN with cold ligand to soluble NTNRα-IgG, protein A Sepharose precipitation, IGOR fit
# T2 construct: Used as conditioned medium of transiently transfected 293 cells; also called soluble rNTNRα protein; rat fusion protein
# [2] = target: T3, human NTNRα-IgG (soluble human NTNRα, product of pRK-hNTNRα-IgG) (human); test: equilibrium binding of 125I-NTN with cold ligand to soluble NTNRα-IgG, protein A Sepharose precipitation, IGOR fit (data not shown)
# T3 construct: Used as conditioned medium of transiently transfected 293 cells; also called recombinant soluble human NTNRα; hNTNRα fusion
# [3] = target: T2, rat NTNRα-IgG (soluble rNTNRα, product …); test: equilibrium binding of 125I-NTN with cold ligand to soluble NTNRα-IgG, protein A Sepharose precipitation, IGOR fit; Scatchard inset of Fig. 6C
# [4] = target: T1, recombinant soluble rat GDNFRα; test: displaceable equilibrium binding of 125I-rGDNF to recombinant soluble rGDNFRα; Scatchard inset of Fig. 6B
# [5] = target: T2, rat NTNRα-IgG (soluble rNTNRα, product …); test: binding experiments with biotinylated ligand, format not described
binder,measurement,setting,value
B1,Kd,[1],~0.01 nM
same,Kd,[2],~0.01 nM
B2,Kd,[2],~0.01 nM
same,Kd,[3],~0.01 nM
B3,Kd,[4],3 pM
B4,Kd,[5],> 1000 µM
